Assay: label from the status in PepcDB records
For “MTVEEAIALVEQLLSGTRLTKVQEIVFRQCWAGQTYSDIALESDYDLGYIKDVGSELWRSLSQALGEKVTKKNLYTVLKRAAKQNSINPSSSLQLPSLANYTDWGEAIDVSQFYGRTHDLATLSRWVLQDNCRVVSLLGMGGIGKTALSVKLAQQLQGQFEYVIWRSLRHAPSFSDKLTECIKILSNQQVTTLPASSHEQITYLIEYLRKSRCLLILDNFDTLLQDGKRAGSYRQGYEPYGELLWRLGETQHQSCVLITSREKPAQIAALEGDGLPVRTLALSGLEVAAGQTILTLKGLSGSEDQTRQLVECYGGNPLALKIAATSIRDLHEGSIANFLSEGTTVFQGIGHLLEDQFQRLSTLEQQLMYWLAINREKVSSTKLQTAFTSPLSKPKLIETLESLRWRSLIESNTGQFTQQPVVMEYVTDSLVEQVCQEIITESPQYLLTHALMQVQAKDYIRDSQINLIVCPILKQLQITLGSVHQLDLKLGRLIRKLQSKVIETVGYGGGNLLNLLAQLDTDLTGYDFSGLDMRECDLRTVNLHAVNFTQTTFRDCVFAATFGGITSVAFSRDGCQLATSDTSGVINIWDVNNGKQLFNCQEHNSWIWDVAFSSVAPVLASCGQDHTIKLWNTTTGECFNTLHGHTSIVTSVAFSPEGKLLASSSYDHSVKVWDLDTGECLQTFLGHDACVWSVVFHPVGQILATAGEDNTIKLWELQSGCCLKTLQGHQHWVKTIAFNSGGRILASGSFDQNVKLWDIHTGKCVMTLQGHTGVVTSVAFNPKDNLLLSGSYDQSVKVWDRKTGRCLDTLKKHTNRIWSVAFHPQGHLFVSGGDDHAAKIWELGTGQCIKTFQGHSNATYTIAHNWEHSLLASGHEDQTIKLWDLNLHSPHKSNVNTHPFRILQGHSNRVFSVVFSSTGQLLASGSADRTIKLWSPHTGQCLHTLHGHGSWVWAIAFSLDDKLLASGSYDHTVKIWDVSSGQCLQTLQGHPGSVLAVAFSCDGKTLFSSGYEKLVKQWDVETGYCLQTWEADSNRVWAVAVSRDNQYLATGGDDSVVRLWDIGKGVCVRTFSGHTSQVICILFTKDGRRMISSSSDRTIKIWNVSTGECLATLQAHDHWVWSLYLTPDEKTLLSSSWDETIKCWNISTGECWQTLRPARPYEGMIINEVVGLSQAQIATLKALGALEVN”, the protein production was “failed”.
For “MTVGTYAELASVFAALSDETRWEILTELGRADQSASSLATRLPVSRQAIAKHLNALQACGLVESVKVGREIRYRALGAELNKTARTLERIGAEWDRRLAAIKQIAESMEE”, the protein production was “not failed”.
In the case of “MTVLRKQAREAGVYMKVVRNTLARRAVEGTEYECLTDTFTGPSLLAFSNEHPGAAARLFKDFAKENKDFEIKAAAFEGAVTDADVLATLPTYDEAIARLMMCMKEASAGKLVRTIAAVRDQKEEAAA”, the protein production is reported as “failed”.
In the case of “MTVQTAIFDLIKQAKTIIIHRHQRPDPDAIGSQLGLAAIIKASFPAKRVLTPGKQYHGFDWLGQMDEVTEADYQDALVLILDTANQPRIDGELWNQGKTIVKIDHHPNDDAFGDPQWVDVDASSTSEMIYNWYAPLAAELTLTANAARLLYAGIVGDTGRFLYSATKPSTMRAAAALMEAGADAEAVNRIEDTITLPVARLSAYVYEHLTQLDSGAAYVILTNAILDSFAIGDASTAGVVPLPGRIDTVKCWAIFVQQKEGDFRIRLRSKGPSINGVAKNHDGGGHALASGAKAKDQQEIETVVRELDQVASQYEKEVLEHHHHHH”, the protein production is reported as “failed”.
For “MTVRLTFMCATAGGTTRDAVFGDGLLSERGLRRARAAGATLPPYSLAIRAPSVRCAQTAYALGLPTTLEPALRDLDYGTWRGRTVGEVVADEPYGYSAWLTDPDAAPHGGESVRRLCRRIANWLSSVPPYPGRALVITEPSVVRASLVHALSAPVTAFRHFDVPPLSTVSLTLSDGHWIVRPGRVTPDRVGTSRAVPTPYDAAEGRTALLWGEATPA”, the protein production was “failed”.
With “MTVRSRFFTEAEGKAVGVENAAAKGDVLLVCEHASATIPQKYGTLGLSADVLSSHAAWDPGALAVARLLSEKFHATLVYQRFSRLVYDCNRPPESPSAMPVKSEIYDIPGNFDLDEAERFARTSALYVPFHDRVSEIIAERQAAGRKVVVVTIHSFTPVYHGRFREVEIGILHDNDSRLADAMLAGAEGASLTVRRNDPYGPEDGVTHTLRLHALPDGLLNVMIEIRNDLIANEGEQAAIAGFLHELMGKALSSIEE” the protein production was “not failed”.
For “MTVSDPAGPRCFCRDCLVDLDMGVRRCSACGSPRLVRHRALSSLTIAHIDCDAFYATVEKRDNPDIADKPVIIGGGKRGVVSAACYIARTYGVRSAMPMFKALDACPHAIVIRPDMAKYVRVGREVRQAMQALTPLVEPLSIDEAFLDLSGTERVHGMIPAKVLARFARNIERDIGISVSVGLSCNKFLAKIASDLDKPRGFAALDQEEARLMLASRPVGFIFGVGPATQERLVQRGFRIIADLQKADEIEMMRQFPSDGRRLWRLARGIDDRRVEPDRGAKTISSETTFETDIRDFATLEKILWRLCEKTSSRLKSSELAGSTVTLKLKTADFRQRTRSQSIAAPTQLAAKIFSICREMLAKEIDGTAFRLMGAGVSALREGSPADDTDMLDRRAAHAERAVDSLRKKFGNSAVIRGIAYDGPETGQQE”, the protein production was “failed”.
In the case of “MTVSQDILLTDHFKQWIEIFKKGKVSDGTYRKYLYTLSVLKKHFSTATIKTMNRVKYQEMLNEFAEGHSDSSVKQINVHVRASLENLLDDFIIKNDFTKGAISLEHHHHHH”, the protein production is reported as “not failed”.
In the case of “MTVTSPRIATILLLIVCFIWGVEFVPIDLAIEVMPTNTFNAIRFAVATLSMLPLLWFVQKKNKGNSKPIDYVLLIRSGMLLGFFLFIGFYTQTEGMRFTTVTNAGFITGLCVPLVPVLGFLIFRNVVPKSVWIGVVTATAGLYMLTIGDKLVFNKGDILVLICAFGFAGHIIMTDRFVDNLPIIPLSIVQIFAVSIYSTIAIFIGPDPVFYYQDAEPVSWYQQLFTPLMIFAILVSGILGTAYAFWAQSVSQTLLKPHKVALIFAAEPVFACIAAWVFLDEVLGEKGMIGAGLILAGMLVSELGDRKKQPELRALDQTAALK”, the protein production is reported as “failed”.
With “MTWLFCDRIATKIDKNNGISMITHNFNTLDLLTSPVWIVSPFEEQLIYANSAARLLMQDLTFSQLRTGPYSVSSQKELPKYLSDLQNQHDIIEILTVQRKEEETALSCRLVLRKLTEAEPVIIFEGIEAPATLGLKASRSANYQRKKQGFYARFFLTNSAPMLLIDPSRDGQIVDANLAALNFYGYNHETMCQKHTWEINMLGRRVMPIMHEISHLPGGHKPLNFVHKLADGSTRHVQTYAGPIEIYGDKLMLCIVHDITEQKRLEEQLEHAAHHDAMTGLLNRRQFYHITEPGQMQHLAIAQDYSLLLIDTDRFKHINDLYGHSKGDEVLCALARTLESCARKGDLVFRWGGEEFVLLLPRTPLDTALSLAETIRVSVAKVSISSLPRFTVSIGVAHHEGNESIDELFKRVDDALYRAKNDGRNRVLAA” the protein production was “failed”.
For “MTWSFTLGRLFGSELKVHVTFFLLIGWIGVSAYQMGGWPSAVENTAFVLALFACVVAHEYGHALTARRYGIRTPDITLLPIGGLARLDRMPEKPGQEIVVALAGPAVNVAIWAALTLVGVDTRFETLAAIDSAEPDFLGRLAMVNLFLAVFNLIPAFPMDGGRVLRAALSLTMDRVRATRIAAAAGQLVALLFGFAGLSGGNPVLVLIAVFVFIAANAEAQDVAMRAVTRRLLARDAMITRFEALGPTDTLATAAQAVLHTTQHEFPVLDGEGHLLGFVTRARLFAALAADHPRSDPAETVMDREIPQVPLASGLETVLDALYQGAPAVAVTSADGRMLGYVTRENVGELMVIQGR”, the protein production was “failed”.
In the case of “MTYKSLPVAEKIQSYWNRRARLVIVTSFTILCAAATIYFHMILGVEIVFTHLFYIPMVFAAVWFGRRSFIVTAFLGTVLLVTHALASLGGFQDDVMRLSVMFFVNAITVILSESIGESEEALAESEEKYRTIVESARDAIITVDGNGSIVSWNSAAEKIFGYRAAEMMGRHIDTIITEENLEKHDFNRIIDREISIMVTDVEGVRKDGTRVPLEISVFSWNYMDEKFITAVIRDVTERKMAENALIESERKFRAVFDGVEDIITIVEIRENGLPGKYIEVNRAAVEKLGYSRDELLRMTPADMGVSREQSYDIIKNLLRSGKVTFNRTYISRDGRRIPVEVNSRLLELGEMKVAVSVARDITQRLENERRLRESEEKYRSLFDLSPEYILLLDPEDGRILDVNSTLAGTLGIPSEELRGRSIYELEFLSDDVKTEFRSKIEVIERDGTLEPYEMVLTDPYGREYTVRIYNKLIHAEGRECLLIVLNDISDLKRTQSMLEKSLAEKELLLKEIHHRVKNNLMIISSLLSLQSRQAKDRETMDLFRESENRTRSMVLIHERLYRSEDLKNIDLAEYLGRLASEIFRSYSADSRIRLKLEIDELKVDVETAVPLGLIVNELLTNAVKHAFPDGEGTVTVSLRKRNGTVTLEVSDDGAGFPEDIDWESSPSLGLQLVRKPH”, the protein production is reported as “failed”.
In the case of “MVAAIIAGAAVAAAAYAGKYGIEAWQAFKLRPVRPRMRKFYEGGFQATMNRREAALILGVRESVAAEKVKEAHRRVMVANHPDAGGSHYLASKINEAKDMMLGKTKNSGSAF”, the protein production is reported as “failed”.
With “MVADSFVYSFVSSPDLSVLVLLCVLLLTALRQVGSLRLQIWQVMTLGAFSVLLLGEISPQEALRAINIDVLLFLFGAFCVGEALNRSGYLAWIGGRIVSRAKNTDQLVLLVIFSTGLLSAVLMNDTLAIMGTPLVLRFSRKYGVSPKLMLFALAFGITTGSVMSPIGNPQNLLIAIDGNLDSPFVVFLSSLAVPTMINLVLVYAVLKLFFSREFGKPALIHTEELISDPELAEISKKALFLLLALITCKILLVEFLPAWDFSLSWIALFSASPILLSKRRTEVVKNIDWATLVFFVSMFVLMESVWISGTCQGLLYRMSPQLGSVPTILALSIGLSQLISNVPFVALYLPAMGSGVSQGQLMALAAGSTIAGNLLILGAASNVIILQNAEKEGETFSFMEFAKIGLLISFLNAIIYFIFL” the protein production was “failed”.
For “MVARDTTAPQVKIVNPVTGNVSGSNVPISVNASDDSGASGITYALYIDGVLKATGKGSTLGYNWNIRNVAAGAHTVQVVAKDAAGNSASSSVSVTVVKLEHHHHHH”, the protein production was “failed”.
With “MVCFASLFEEVSMHTCPLCHNQHTRHYFEDKHREYLQCEQCYLVFVNPDQRLDAETEKAHYDLHENNPEDIGYRRFLSRIADPITERISPQSNGIDFGCGPGPTLSLMLEEAGHNMALYDIYYHPDTAVLEKQYDFMTATEVIEHLYHPDVVWKQWLNLVKPGGWIGLMTKMVIDVEAFKSWHYKNDPTHVVFFSRDTFQFLAERDKLELEFIGNDVILLRKTQLEHHHHHH” the protein production was “not failed”.
With “MVDQNPEEYYSKGILQYDDGNYTESIDLFEKAIQLNPEESKYWLMKGKALYNLERYEEAVDCYNYVINVIEDEYNKDVWAAKADALRHIEGKEVEAEIAEARAKLEHHHHHH” the protein production was “not failed”.
With “MVDYKTVRCHFGDVELTKWITITDGFTVFSGADYDPELKEIGGKDGSIFIGTKTKHKVIKVPFWVKYNTIEDYDALQLALSSKKPKMLMFSHIPGRYYLAVQVGDLNFKEIKMNGFGEITFIVADAYAHSTSYRRIKDYTQDGNKMTFKIKNNGTAPAFPIFRIKHLGENGYIGITNETGAFAVGSPEEEDGTIVHRNETLFDYSKAIAQALEGAPNVAKLNYMPPTFDSELKRMRLDNILGSGKGGEYVAIGARGTTPGYGEHVGTRTFIINPDSNGEYTLNEHLWWKQIFIATAQDQKGFLKLCVTGENDEFLYGIETYKRKNGFETEYNFFALDDDGVGWRFYKQFEFQADRNYHNPFSMNRSRAVEIFREEDKFRIYFNGAHHHVTVPSLKGKKSRKIHLAMGTCSDSSKYINYNLFEKVNFEKMGVSHYNNIVNKYQPGDEVIINFENDTVSTKDIDSIQDVVLGSKMISIPPGESELVVHLSSWVAALPDISIDFEERYK” the protein production was “failed”.
In the case of “MVEADRPGKLFIGGLNTETNEKALEAVFGKYGRIVEVLLMKDRETNKSRGFAFVTFESPADAKDAARDMNGKSLDGKAIKVEQATKPSFE”, the protein production is reported as “failed”.
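Note: failed if final PepcDB status was selected cloned or expressed and not failed if soluble or beyond.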
